These results are taken from patent US20240076361A1 (EISAI R AND D MANAGEMENT, published 2024).

In the experiment the target is T1, non-phosphorylated Tau (Tau-441 (2N4R), rPeptide LLC) (human, UniProt P10636 1-758).
T1 construct: also called non-phosphorylated Tau protein (2N4R); recombinant Tau
Briefly: sandwich ELISA: antigen captured by coated anti-Tau antibody BT2, detected with the peroxidase-labelled antibody at 80 ng/mL; antigen concentration varied. As for the experimental part: Anti-Tau monoclonal antibody BT2 (Thermo Fisher Scientific) was adjusted with 50 mM Tris/HCl (pH 7.5) to a concentration of 1 microgram/mL, and then injected at 100 microliter/well in a Maxisorp cup (NUNC). The cup was placed in a humid box and coated overnight at 4 degrees Celsius. After the antibody solution was removed by aspiration, a blocking solution (5% skimmed milk (FUJIFILM Wako Pure Chemical), 50 mM Tris/HCl (pH 7.5), 150 mM NaCl, 0.1% sodium azide) was injected at 200 microliter/well, followed by blocking at room temperature for 2 hours or at 4 degrees Celsius for one day or more (hereinafter referred to as “BT2 cup”). The test recombinant antibodies: 5F6-4D1, 7G5-4B8, 2H8-1G7, 2H8-1G7(KC14S) and comparator antibodies: PT3 and anti-pT217 Tau polyclonal antibody (Genscript poly; Cat. No. A00896, Genscript) were labeled with peroxidase using a Peroxidase Labeling Kit-NH2 (DOJINDO MOLECULAR TECHNOLOGIES) in accordance with the instruction manual attached to the kit (hereinafter referred to as “peroxidase-labeled pT217 Tau antibodies”). […]
On the technique in general: ELISA stands for enzyme-linked immunosorbent assay.

T1 sequence (P10636 other isoform, or with tags, fused parts or gaps limits assumed): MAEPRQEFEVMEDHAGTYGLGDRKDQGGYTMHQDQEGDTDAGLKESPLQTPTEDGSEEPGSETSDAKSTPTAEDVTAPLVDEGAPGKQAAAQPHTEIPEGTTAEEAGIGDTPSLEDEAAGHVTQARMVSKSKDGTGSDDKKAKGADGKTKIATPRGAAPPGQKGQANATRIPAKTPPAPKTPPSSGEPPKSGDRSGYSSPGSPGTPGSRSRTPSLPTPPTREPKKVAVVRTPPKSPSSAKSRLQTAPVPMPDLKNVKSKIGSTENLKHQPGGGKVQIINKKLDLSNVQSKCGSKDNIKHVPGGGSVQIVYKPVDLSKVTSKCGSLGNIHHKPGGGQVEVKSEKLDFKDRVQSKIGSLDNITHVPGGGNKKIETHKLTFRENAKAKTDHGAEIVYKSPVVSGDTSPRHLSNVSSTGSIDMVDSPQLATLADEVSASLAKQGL

B1: 2H8-1G7(KC14S) (antibody, mouse IgG2b, kappa, V domains shown)
VH: EVQLVESGGGLVKPGGSLKLSCAASGFTVSDYGMHWVRQAPEKGLEWIAYISSGSSTIYYVDTVKGRFTISRDNAKNTLFLQMTSLRSEDTAMYYCARRLSIWGTGTTVTVSS
VL: QIVLTQSPAIMSASPGEKVTMTCSASSSVSSMYWYHQKPGSSPRLLIYDTSNLASGVPVRFSGSGSGTSYSLTISRMEAEDAATYYCLQWSSYPLTFGAGTKLELKR
notes: Recombinant mouse IgG2b kappa
As for B1, the binding result is given as “no binding (tested: 80000 pg/mL)”.
